Data reported in paper PMC12429063, “The BUB1 and BUBR1 paralogs scaffold the kinetochore fibrous corona” (Science Advances, 2025).

Experiments:
[1] = target: T1, mCherry-tagged ROD-Zwilch-ZW10 (RZZ) complex, wild type (UniProt P50748 1-2209; Q9H900 1-591; O43264 1-779); experiment: pull-down; GST-BUB1 baits on GSH beads, no phosphorylation step; 50 mM Hepes pH 8.0, 100 mM NaCl, 1 mM TCEP; beads 2 hours at 4°C; SDS-PAGE, Coomassie or in-gel fluorescence; conditions: both partners purified
T1 construct: ROD, subunit of the RZZ complex; Zwilch, subunit of the RZZ complex; ZW10, subunit of the RZZ complex; also called mCherry-RZZ; mCherry-RZZ^WT; source: expressed and purified using the biGBac system, as previously described; copies: 2 + 2 + 2

[2] = target: T2, RZZS rings: mCherry-RZZ polymerized with farnesylated GFP-Spindly in the presence of MPS1 kinase domain (UniProt P50748 1-2209; Q9H900 1-591; O43264 1-779; Q96EA4 1-605, incubated with MPS1 kinase domain and ATP (the paper names T13 and S15 of ROD as the MPS1 sites) | farnesylated); experiment: co-sedimentation; pelleting assay: polymerized RZZS incubated with preys 2 hours at 20°C, 40% glycerol cushion, 100,000g 45 min at 20°C; 50 mM Hepes pH 8, 100 mM NaCl, 2 mM MgCl2, 1 mM TCEP; conditions: both partners purified
T2 construct: ROD, subunit of the RZZ complex; Zwilch, subunit of the RZZ complex; ZW10, subunit of the RZZ complex; Spindly, dynein-dynactin adaptor; A polymer; also called polymerized RZZS; RZZS filaments; copies: + + +
T2 sequence (P50748 whole entry, chain 1 of 4, the tested form may be a part): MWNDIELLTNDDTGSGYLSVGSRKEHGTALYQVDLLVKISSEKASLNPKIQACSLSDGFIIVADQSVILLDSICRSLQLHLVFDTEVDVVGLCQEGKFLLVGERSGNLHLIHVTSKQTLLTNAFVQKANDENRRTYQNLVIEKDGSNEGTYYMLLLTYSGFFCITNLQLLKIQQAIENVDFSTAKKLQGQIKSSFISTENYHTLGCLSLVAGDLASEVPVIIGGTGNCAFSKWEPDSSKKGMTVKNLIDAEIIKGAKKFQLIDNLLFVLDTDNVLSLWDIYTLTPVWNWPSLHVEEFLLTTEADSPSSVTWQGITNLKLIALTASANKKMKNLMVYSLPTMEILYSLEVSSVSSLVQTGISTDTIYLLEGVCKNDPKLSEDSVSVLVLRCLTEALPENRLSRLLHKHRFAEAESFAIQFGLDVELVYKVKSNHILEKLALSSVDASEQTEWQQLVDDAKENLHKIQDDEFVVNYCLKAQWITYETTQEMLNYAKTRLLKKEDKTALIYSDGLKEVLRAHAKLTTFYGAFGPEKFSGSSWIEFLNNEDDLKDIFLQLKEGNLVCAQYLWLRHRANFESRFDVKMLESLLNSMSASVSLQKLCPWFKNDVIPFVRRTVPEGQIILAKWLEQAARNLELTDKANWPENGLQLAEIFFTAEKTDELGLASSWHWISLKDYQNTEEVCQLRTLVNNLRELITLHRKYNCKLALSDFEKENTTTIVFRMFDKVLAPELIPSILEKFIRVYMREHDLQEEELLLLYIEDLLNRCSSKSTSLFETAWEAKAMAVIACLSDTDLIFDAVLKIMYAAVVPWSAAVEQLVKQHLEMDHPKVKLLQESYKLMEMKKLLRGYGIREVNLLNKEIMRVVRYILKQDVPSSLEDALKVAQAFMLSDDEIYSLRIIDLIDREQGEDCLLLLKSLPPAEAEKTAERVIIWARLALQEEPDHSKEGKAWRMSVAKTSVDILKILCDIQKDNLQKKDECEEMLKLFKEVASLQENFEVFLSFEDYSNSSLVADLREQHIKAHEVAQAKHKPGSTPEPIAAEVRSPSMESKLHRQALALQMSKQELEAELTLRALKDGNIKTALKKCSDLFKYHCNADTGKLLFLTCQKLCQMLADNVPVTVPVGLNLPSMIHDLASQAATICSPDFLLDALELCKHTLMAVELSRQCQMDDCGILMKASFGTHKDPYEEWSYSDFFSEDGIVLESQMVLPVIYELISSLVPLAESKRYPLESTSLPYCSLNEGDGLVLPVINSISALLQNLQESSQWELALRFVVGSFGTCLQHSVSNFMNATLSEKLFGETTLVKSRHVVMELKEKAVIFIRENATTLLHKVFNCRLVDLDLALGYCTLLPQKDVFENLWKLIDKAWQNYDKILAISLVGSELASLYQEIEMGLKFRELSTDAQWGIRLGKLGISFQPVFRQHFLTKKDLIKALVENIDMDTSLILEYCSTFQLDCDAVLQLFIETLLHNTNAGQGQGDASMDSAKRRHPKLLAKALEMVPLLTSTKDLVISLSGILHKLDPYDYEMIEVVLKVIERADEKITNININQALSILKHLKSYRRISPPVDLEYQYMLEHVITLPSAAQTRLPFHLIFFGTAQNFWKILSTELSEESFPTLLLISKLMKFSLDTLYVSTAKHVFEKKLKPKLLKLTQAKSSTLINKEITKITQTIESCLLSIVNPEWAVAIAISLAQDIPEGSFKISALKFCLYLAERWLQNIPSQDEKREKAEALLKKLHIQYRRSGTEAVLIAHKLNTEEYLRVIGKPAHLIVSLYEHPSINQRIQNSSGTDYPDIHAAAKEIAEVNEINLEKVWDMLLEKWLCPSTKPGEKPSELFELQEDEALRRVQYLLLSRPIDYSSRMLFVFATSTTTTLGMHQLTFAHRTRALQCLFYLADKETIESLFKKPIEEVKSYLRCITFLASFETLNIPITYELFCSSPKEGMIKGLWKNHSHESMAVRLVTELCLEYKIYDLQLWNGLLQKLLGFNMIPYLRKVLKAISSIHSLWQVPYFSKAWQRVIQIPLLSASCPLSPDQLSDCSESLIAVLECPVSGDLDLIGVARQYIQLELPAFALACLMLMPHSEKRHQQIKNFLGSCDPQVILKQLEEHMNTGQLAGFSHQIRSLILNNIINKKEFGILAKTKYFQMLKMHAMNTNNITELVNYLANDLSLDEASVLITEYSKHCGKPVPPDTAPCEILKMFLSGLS
T2 sequence (Q9H900 whole entry, chain 2 of 4, the tested form may be a part): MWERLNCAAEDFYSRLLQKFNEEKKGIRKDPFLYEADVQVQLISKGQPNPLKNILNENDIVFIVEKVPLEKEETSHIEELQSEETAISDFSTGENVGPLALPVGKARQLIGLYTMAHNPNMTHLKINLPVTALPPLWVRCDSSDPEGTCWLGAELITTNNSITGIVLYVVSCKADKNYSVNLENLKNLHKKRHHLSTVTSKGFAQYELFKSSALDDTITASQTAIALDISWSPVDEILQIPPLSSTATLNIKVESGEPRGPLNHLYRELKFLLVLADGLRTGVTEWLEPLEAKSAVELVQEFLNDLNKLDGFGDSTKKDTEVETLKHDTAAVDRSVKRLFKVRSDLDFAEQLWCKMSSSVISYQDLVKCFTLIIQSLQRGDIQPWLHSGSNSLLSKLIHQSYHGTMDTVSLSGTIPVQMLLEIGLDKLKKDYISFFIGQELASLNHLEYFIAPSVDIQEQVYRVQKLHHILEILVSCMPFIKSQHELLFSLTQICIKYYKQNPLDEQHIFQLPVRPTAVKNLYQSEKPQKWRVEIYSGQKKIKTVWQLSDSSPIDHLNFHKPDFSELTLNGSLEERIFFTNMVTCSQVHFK
T2 sequence (O43264 whole entry, chain 3 of 4, the tested form may be a part): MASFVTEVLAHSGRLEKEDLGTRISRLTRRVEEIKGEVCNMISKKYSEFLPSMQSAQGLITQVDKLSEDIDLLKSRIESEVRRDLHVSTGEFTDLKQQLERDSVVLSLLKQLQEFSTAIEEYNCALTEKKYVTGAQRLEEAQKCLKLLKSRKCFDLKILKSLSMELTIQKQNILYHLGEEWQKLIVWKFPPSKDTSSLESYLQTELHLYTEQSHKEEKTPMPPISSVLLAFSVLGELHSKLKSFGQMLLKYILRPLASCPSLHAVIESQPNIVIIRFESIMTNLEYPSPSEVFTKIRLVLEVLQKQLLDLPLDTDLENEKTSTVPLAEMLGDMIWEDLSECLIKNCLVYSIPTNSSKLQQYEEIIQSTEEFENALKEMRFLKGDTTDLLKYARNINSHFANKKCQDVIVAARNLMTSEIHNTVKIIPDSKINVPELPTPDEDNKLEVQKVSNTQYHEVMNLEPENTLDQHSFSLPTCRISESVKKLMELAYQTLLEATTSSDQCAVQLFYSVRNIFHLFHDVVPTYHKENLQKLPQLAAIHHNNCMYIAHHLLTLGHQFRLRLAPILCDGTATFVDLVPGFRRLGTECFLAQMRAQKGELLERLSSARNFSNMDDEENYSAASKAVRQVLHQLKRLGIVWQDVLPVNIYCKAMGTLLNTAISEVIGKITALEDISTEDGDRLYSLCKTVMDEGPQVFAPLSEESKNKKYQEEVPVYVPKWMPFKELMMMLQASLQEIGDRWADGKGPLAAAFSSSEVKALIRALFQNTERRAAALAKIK
T2 sequence (Q96EA4 whole entry, chain 4 of 4, the tested form may be a part): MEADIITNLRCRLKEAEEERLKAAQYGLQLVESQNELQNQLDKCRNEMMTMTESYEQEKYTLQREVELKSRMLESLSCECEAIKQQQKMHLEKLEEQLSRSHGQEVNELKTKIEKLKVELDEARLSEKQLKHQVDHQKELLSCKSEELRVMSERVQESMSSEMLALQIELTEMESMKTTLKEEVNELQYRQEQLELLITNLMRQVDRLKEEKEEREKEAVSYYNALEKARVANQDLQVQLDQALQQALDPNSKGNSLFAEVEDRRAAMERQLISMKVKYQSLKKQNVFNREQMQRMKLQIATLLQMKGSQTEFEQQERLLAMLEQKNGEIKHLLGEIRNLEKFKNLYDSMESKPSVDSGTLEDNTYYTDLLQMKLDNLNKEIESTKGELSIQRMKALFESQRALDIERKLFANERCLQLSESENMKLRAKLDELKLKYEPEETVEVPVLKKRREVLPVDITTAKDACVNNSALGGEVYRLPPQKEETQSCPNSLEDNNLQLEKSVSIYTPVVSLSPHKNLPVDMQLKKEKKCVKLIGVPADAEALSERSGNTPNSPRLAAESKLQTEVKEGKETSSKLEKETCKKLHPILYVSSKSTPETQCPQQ

T1 sequence (P50748 whole entry, chain 1 of 3): as the sequence (P50748 whole entry, chain 1 of 4, the tested form may be a part) above
T1 sequence (Q9H900 whole entry, chain 2 of 3): as the sequence (Q9H900 whole entry, chain 2 of 4, the tested form may be a part) above
T1 sequence (O43264 whole entry, chain 3 of 3): as the sequence (O43264 whole entry, chain 3 of 4, the tested form may be a part) above

B1: GST-BUB1^467-521 (domain or fragment, human, UniProt O43683 467-521, looked up)
chain: ALGFIMNMFQAPTLPDISDDKDEWQSLDQNEDAFEAQFQKNVRSSGAWGVNKIIS
notes: source: E. coli BL21 CodonPlus, purified (GSTrap, SEC); not shown: GST, N-terminal, kept
B1: binds [1]; binds [2].
